Reference: patent US12679878B2, “CRF2 receptor agonists and their use in therapy” (SANOFI, priority 2020, dated 2026)
Starred links: 1 amine or outer side, 2 acyl side, 3 side chain; linkers in the order of their positions; H or OH if unused. Non-standard residues stand in square brackets, D forms with d. Groups on a side chain read outwards from the residue. No end group written: not given here. *: point of attachment. C18 diacid = O=C(O)CCCCCCCCCCCCCCCCC(=O)*; C16 diacid = O=C(O)CCCCCCCCCCCCCCC(=O)*; γGlu = O=C(O)[C@H](CCC(=O)[*:2])N[*:1]; AEEA = NCCOCCOCC(=O)O; Aib = CC(C)(N)C(=O)O

T1: CRF1R receptor (anti-target) (UniProt P34998 24-415, limits assumed)
T1 sequence (looked up): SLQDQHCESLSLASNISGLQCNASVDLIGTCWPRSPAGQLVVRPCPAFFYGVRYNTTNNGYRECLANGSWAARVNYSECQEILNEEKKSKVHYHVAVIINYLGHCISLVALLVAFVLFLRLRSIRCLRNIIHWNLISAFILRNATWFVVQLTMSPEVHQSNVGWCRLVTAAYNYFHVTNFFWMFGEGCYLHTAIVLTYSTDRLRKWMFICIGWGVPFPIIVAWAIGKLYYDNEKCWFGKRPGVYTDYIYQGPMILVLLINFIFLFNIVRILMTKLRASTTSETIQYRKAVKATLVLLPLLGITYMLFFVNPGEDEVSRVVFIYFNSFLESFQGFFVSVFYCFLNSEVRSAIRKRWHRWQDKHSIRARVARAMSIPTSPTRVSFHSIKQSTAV

B1: peptide of SEQ ID NO: 189 (peptide)
peptide: IVLSLD[dV]PIKLK([γGlu-C16 diacid])QILLKQERQKK[Aib]RQKAEKNKQILAQV-NH2
modifications: N-terminus assumed
SMILES: CC[C@H](C)[C@H](N)C(=O)N[C@H](C(=O)N[C@@H](CC(C)C)C(=O)N[C@@H](CO)C(=O)N[C@@H](CC(C)C)C(=O)N[C@@H](CC(=O)O)C(=O)N[C@@H](C(=O)N1CCC[C@H]1C(=O)N[C@H](C(=O)N[C@@H](CCCCN)C(=O)N[C@@H](CC(C)C)C(=O)N[C@@H](CCCCNC(=O)CC[C@H](NC(=O)CCCCCCCCCCCCCCC(=O)O)C(=O)O)C(=O)N[C@@H](CCC(N)=O)C(=O)N[C@H](C(=O)N[C@@H](CC(C)C)C(=O)N[C@@H](CC(C)C)C(=O)N[C@@H](CCCCN)C(=O)N[C@@H](CCC(N)=O)C(=O)N[C@@H](CCC(=O)O)C(=O)N[C@@H](CCCNC(=N)N)C(=O)N[C@@H](CCC(N)=O)C(=O)N[C@@H](CCCCN)C(=O)N[C@@H](CCCCN)C(=O)NC(C)(C)C(=O)N[C@@H](CCCNC(=N)N)C(=O)N[C@@H](CCC(N)=O)C(=O)N[C@@H](CCCCN)C(=O)N[C@@H](C)C(=O)N[C@@H](CCC(=O)O)C(=O)N[C@@H](CCCCN)C(=O)N[C@@H](CC(N)=O)C(=O)N[C@@H](CCCCN)C(=O)N[C@@H](CCC(N)=O)C(=O)N[C@H](C(=O)N[C@@H](CC(C)C)C(=O)N[C@@H](C)C(=O)N[C@@H](CCC(N)=O)C(=O)N[C@H](C(N)=O)C(C)C)[C@@H](C)CC)[C@@H](C)CC)[C@@H](C)CC)C(C)C)C(C)C
B2: peptide of SEQ ID NO: 152 (peptide)
peptide: IVLSLDVPIKLK([AEEA-AEEA-γGlu-C18 diacid])QILLKQERQKK[Aib]REQAETNKRILERV-NH2
modifications: N-terminus assumed
SMILES: CC[C@H](C)[C@H](N)C(=O)N[C@H](C(=O)N[C@@H](CC(C)C)C(=O)N[C@@H](CO)C(=O)N[C@@H](CC(C)C)C(=O)N[C@@H](CC(=O)O)C(=O)N[C@H](C(=O)N1CCC[C@H]1C(=O)N[C@H](C(=O)N[C@@H](CCCCN)C(=O)N[C@@H](CC(C)C)C(=O)N[C@@H](CCCCNC(=O)COCCOCCNC(=O)COCCOCCNC(=O)CC[C@H](NC(=O)CCCCCCCCCCCCCCCCC(=O)O)C(=O)O)C(=O)N[C@@H](CCC(N)=O)C(=O)N[C@H](C(=O)N[C@@H](CC(C)C)C(=O)N[C@@H](CC(C)C)C(=O)N[C@@H](CCCCN)C(=O)N[C@@H](CCC(N)=O)C(=O)N[C@@H](CCC(=O)O)C(=O)N[C@@H](CCCNC(=N)N)C(=O)N[C@@H](CCC(N)=O)C(=O)N[C@@H](CCCCN)C(=O)N[C@@H](CCCCN)C(=O)NC(C)(C)C(=O)N[C@@H](CCCNC(=N)N)C(=O)N[C@@H](CCC(=O)O)C(=O)N[C@@H](CCC(N)=O)C(=O)N[C@@H](C)C(=O)N[C@@H](CCC(=O)O)C(=O)N[C@H](C(=O)N[C@@H](CC(N)=O)C(=O)N[C@@H](CCCCN)C(=O)N[C@@H](CCCNC(=N)N)C(=O)N[C@H](C(=O)N[C@@H](CC(C)C)C(=O)N[C@@H](CCC(=O)O)C(=O)N[C@@H](CCCNC(=N)N)C(=O)N[C@H](C(N)=O)C(C)C)[C@@H](C)CC)[C@@H](C)O)[C@@H](C)CC)[C@@H](C)CC)C(C)C)C(C)C
B3: peptide of SEQ ID NO: 190 (peptide)
peptide: IVLSLD[dV]PIKLK([γGlu-C16 diacid])QILLKQERQKKQREQAEKNKQILEQV-NH2
modifications: N-terminus assumed
SMILES: CC[C@H](C)[C@H](N)C(=O)N[C@H](C(=O)N[C@@H](CC(C)C)C(=O)N[C@@H](CO)C(=O)N[C@@H](CC(C)C)C(=O)N[C@@H](CC(=O)O)C(=O)N[C@@H](C(=O)N1CCC[C@H]1C(=O)N[C@H](C(=O)N[C@@H](CCCCN)C(=O)N[C@@H](CC(C)C)C(=O)N[C@@H](CCCCNC(=O)CC[C@H](NC(=O)CCCCCCCCCCCCCCC(=O)O)C(=O)O)C(=O)N[C@@H](CCC(N)=O)C(=O)N[C@H](C(=O)N[C@@H](CC(C)C)C(=O)N[C@@H](CC(C)C)C(=O)N[C@@H](CCCCN)C(=O)N[C@@H](CCC(N)=O)C(=O)N[C@@H](CCC(=O)O)C(=O)N[C@@H](CCCNC(=N)N)C(=O)N[C@@H](CCC(N)=O)C(=O)N[C@@H](CCCCN)C(=O)N[C@@H](CCCCN)C(=O)N[C@@H](CCC(N)=O)C(=O)N[C@@H](CCCNC(=N)N)C(=O)N[C@@H](CCC(=O)O)C(=O)N[C@@H](CCC(N)=O)C(=O)N[C@@H](C)C(=O)N[C@@H](CCC(=O)O)C(=O)N[C@@H](CCCCN)C(=O)N[C@@H](CC(N)=O)C(=O)N[C@@H](CCCCN)C(=O)N[C@@H](CCC(N)=O)C(=O)N[C@H](C(=O)N[C@@H](CC(C)C)C(=O)N[C@@H](CCC(=O)O)C(=O)N[C@@H](CCC(N)=O)C(=O)N[C@H](C(N)=O)C(C)C)[C@@H](C)CC)[C@@H](C)CC)[C@@H](C)CC)C(C)C)C(C)C
B4: peptide of SEQ ID NO: 156 (peptide)
peptide: IVLSLDVPIGLK([AEEA-AEEA-γGlu-C18 diacid])QILLKQERQKK[Aib]REQAETNAQILAQV-NH2
modifications: N-terminus assumed
SMILES: CC[C@H](C)[C@H](N)C(=O)N[C@H](C(=O)N[C@@H](CC(C)C)C(=O)N[C@@H](CO)C(=O)N[C@@H](CC(C)C)C(=O)N[C@@H](CC(=O)O)C(=O)N[C@H](C(=O)N1CCC[C@H]1C(=O)N[C@H](C(=O)NCC(=O)N[C@@H](CC(C)C)C(=O)N[C@@H](CCCCNC(=O)COCCOCCNC(=O)COCCOCCNC(=O)CC[C@H](NC(=O)CCCCCCCCCCCCCCCCC(=O)O)C(=O)O)C(=O)N[C@@H](CCC(N)=O)C(=O)N[C@H](C(=O)N[C@@H](CC(C)C)C(=O)N[C@@H](CC(C)C)C(=O)N[C@@H](CCCCN)C(=O)N[C@@H](CCC(N)=O)C(=O)N[C@@H](CCC(=O)O)C(=O)N[C@@H](CCCNC(=N)N)C(=O)N[C@@H](CCC(N)=O)C(=O)N[C@@H](CCCCN)C(=O)N[C@@H](CCCCN)C(=O)NC(C)(C)C(=O)N[C@@H](CCCNC(=N)N)C(=O)N[C@@H](CCC(=O)O)C(=O)N[C@@H](CCC(N)=O)C(=O)N[C@@H](C)C(=O)N[C@@H](CCC(=O)O)C(=O)N[C@H](C(=O)N[C@@H](CC(N)=O)C(=O)N[C@@H](C)C(=O)N[C@@H](CCC(N)=O)C(=O)N[C@H](C(=O)N[C@@H](CC(C)C)C(=O)N[C@@H](C)C(=O)N[C@@H](CCC(N)=O)C(=O)N[C@H](C(N)=O)C(C)C)[C@@H](C)CC)[C@@H](C)O)[C@@H](C)CC)[C@@H](C)CC)C(C)C)C(C)C
B5: peptide of SEQ ID NO: 193 (peptide)
peptide: IVLSLD[dV]PIGLK([γGlu-C16 diacid])QILLKQERQKK[Aib]REQAETNKRILERV-NH2
modifications: N-terminus assumed
SMILES: CC[C@H](C)[C@H](N)C(=O)N[C@H](C(=O)N[C@@H](CC(C)C)C(=O)N[C@@H](CO)C(=O)N[C@@H](CC(C)C)C(=O)N[C@@H](CC(=O)O)C(=O)N[C@@H](C(=O)N1CCC[C@H]1C(=O)N[C@H](C(=O)NCC(=O)N[C@@H](CC(C)C)C(=O)N[C@@H](CCCCNC(=O)CC[C@H](NC(=O)CCCCCCCCCCCCCCC(=O)O)C(=O)O)C(=O)N[C@@H](CCC(N)=O)C(=O)N[C@H](C(=O)N[C@@H](CC(C)C)C(=O)N[C@@H](CC(C)C)C(=O)N[C@@H](CCCCN)C(=O)N[C@@H](CCC(N)=O)C(=O)N[C@@H](CCC(=O)O)C(=O)N[C@@H](CCCNC(=N)N)C(=O)N[C@@H](CCC(N)=O)C(=O)N[C@@H](CCCCN)C(=O)N[C@@H](CCCCN)C(=O)NC(C)(C)C(=O)N[C@@H](CCCNC(=N)N)C(=O)N[C@@H](CCC(=O)O)C(=O)N[C@@H](CCC(N)=O)C(=O)N[C@@H](C)C(=O)N[C@@H](CCC(=O)O)C(=O)N[C@H](C(=O)N[C@@H](CC(N)=O)C(=O)N[C@@H](CCCCN)C(=O)N[C@@H](CCCNC(=N)N)C(=O)N[C@H](C(=O)N[C@@H](CC(C)C)C(=O)N[C@@H](CCC(=O)O)C(=O)N[C@@H](CCCNC(=N)N)C(=O)N[C@H](C(N)=O)C(C)C)[C@@H](C)CC)[C@@H](C)O)[C@@H](C)CC)[C@@H](C)CC)C(C)C)C(C)C
B6: peptide of SEQ ID NO: 187 (peptide)
peptide: IVLSLD[dV]PIKLK([γGlu-C16 diacid])QILLKQERQK[Aib]QREQAEKNKQILAQV-NH2
modifications: N-terminus assumed
SMILES: CC[C@H](C)[C@H](N)C(=O)N[C@H](C(=O)N[C@@H](CC(C)C)C(=O)N[C@@H](CO)C(=O)N[C@@H](CC(C)C)C(=O)N[C@@H](CC(=O)O)C(=O)N[C@@H](C(=O)N1CCC[C@H]1C(=O)N[C@H](C(=O)N[C@@H](CCCCN)C(=O)N[C@@H](CC(C)C)C(=O)N[C@@H](CCCCNC(=O)CC[C@H](NC(=O)CCCCCCCCCCCCCCC(=O)O)C(=O)O)C(=O)N[C@@H](CCC(N)=O)C(=O)N[C@H](C(=O)N[C@@H](CC(C)C)C(=O)N[C@@H](CC(C)C)C(=O)N[C@@H](CCCCN)C(=O)N[C@@H](CCC(N)=O)C(=O)N[C@@H](CCC(=O)O)C(=O)N[C@@H](CCCNC(=N)N)C(=O)N[C@@H](CCC(N)=O)C(=O)N[C@@H](CCCCN)C(=O)NC(C)(C)C(=O)N[C@@H](CCC(N)=O)C(=O)N[C@@H](CCCNC(=N)N)C(=O)N[C@@H](CCC(=O)O)C(=O)N[C@@H](CCC(N)=O)C(=O)N[C@@H](C)C(=O)N[C@@H](CCC(=O)O)C(=O)N[C@@H](CCCCN)C(=O)N[C@@H](CC(N)=O)C(=O)N[C@@H](CCCCN)C(=O)N[C@@H](CCC(N)=O)C(=O)N[C@H](C(=O)N[C@@H](CC(C)C)C(=O)N[C@@H](C)C(=O)N[C@@H](CCC(N)=O)C(=O)N[C@H](C(N)=O)C(C)C)[C@@H](C)CC)[C@@H](C)CC)[C@@H](C)CC)C(C)C)C(C)C

Biological target: T1, CRF1R receptor (anti-target)
Test: cell-based or functional assay

Binder | EC50 [nM] 0% HSA (cAMP, HTRF) [nM] | Emax (%) (100% = Sauvagine at 100 nM)
B1 | > 100 | 15
B2 | > 100 | 4.9
B3 | > 100 | 12
B4 | > 100 | 4
B5 | > 100 | 8.77
B6 | > 100 | 43.8
